# Data: the nanobody polyreactivity screen of Harvey et al. (2022)
# Experiment: yeast display, Sf9 membrane polyspecificity reagent, FACS + sequencing; frameworks hold sequencing errors
# Method in brief: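 Genes from sorted yeast were amplified by colony PCR, read by MiSeq 2 × 250 sequencing and filtered on CDR length. These cells carried a synthetic nanobody library in Saccharomyces cerevisiae BJ5465 and were sorted by FACS into low and high (top ~1%) gates on anti-HA and streptavidin fluorescence. Polyreactivity is labelled according to the gate of origin.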
row,Sequence,polyreactivity (PSR sort gate)
1,QVQLVESGGGLVQAGGSLRLSCAASGRIFALYAMGWYRQAPGKERELVAAISGGGGSTYYADSVKGRFTISRDNAKNSVYLQMNSLKPEDTAVYYCAARGLSGSSVKYGYWGQGTQVTVSS,high polyreactivity
2,QVQLVESGGGLVQAGGSLRLSCAASGRIFALYAMGWYRQAPGKERELVAAITWRGGRTRYADSVKGRFTISRDNAKNTVYLQMNSLKPEDTAVYYCAKEYVKYQWDYGYWGQGTQVTVSS,high polyreactivity
3,QVQLVESGGGLVQAGGSLRLSCAASGRIFAPYAMGWYRQAPGKERELVAAITSGGSTNYADSVKGRFTISRDNAKNTVYLQMNSLKPEDTAVYYCAAEASYNYGKYVVTYDYWGQGTQVTVSS,high polyreactivity
4,QVQLVESGGGLVQAGGSLRLSCAASGRIFAPYAMGWYRQAPGQEREFVATITVSGARTRYADSVKGRFTISRDNAKNTVYLQMNSLKPEETAVYYCAASKFYSWRATRKVSYDYWGQGTQVTVSS,high polyreactivity
5,QVQLVESGGGLVQAGGSLRLSCAASGRIFAPYDMGWYRQAPGKERELVAAISRSGGSTYYADSVKGRFTISRDNAKNSVYFQLNSLKPEDTAVYYCAASYPGRYWLYRYEYWGQGTQVTVSS,high polyreactivity
6,QVQLVESGGGLVQAGGSLRLSCAASGRIFAQYAMGWYRQAPGKERELVADISSGVRTYADSVKGRFTISRDNAKNTVYLQMNSLKPEDTAVYYCNAYYIIFTRNDYWGQGTQVTVSS,low polyreactivity
7,QVQLVESGGGLVQAGGSLRLSCAASGRIFARKAMGWYRQAPGKEGELVARIRASGGSTYYADSVKGRFTISRDNAKNTVYLQMNSLKPEDTAVYYCNARTSSPYRVDYWGQGTQVTVSS,high polyreactivity
8,QVQLVESGGGLVQAGGSLRLSCAASGRIFARNALGWYRQAPGKEGELVARIRASGGSTYYADSVKGRFTISRDNAKNTVYLQMNSLKPEDTAVYYCNARTSSPYRVDYWGQGTQVTVSS,high polyreactivity
9,QVQLVESGGGLVQAGGSLRLSCAASGRIFARYAMGWYRQAPGKERELVAAITVSGDNTYYADSVKGRFTISRDNAKNTVYLQMNSLKPEDTAVYYCAVRAVLLFGFFEYDYWGQGTQVTVSS,low polyreactivity
10,QVQLVESGGGLVQAGGSLRLSCAASGRIFARYTMGWYRQAPGKERELVATITGRGGRTYADSVKGRFTISRDNAKNTVYLQMNSLKPEVTAVYYCNAGGRTASRRYYWGQGSQVTVSS,low polyreactivity
11,QVQLVESGGGLVQAGGSLRLSCAASGRIFASNAMGWYRQAPGKERELVAAISRTGGTTYYADSVKGRFTISRDNAKNTVYLQMNSLKPEDTAVYYCNAVKAPYLRYDYWGQGTQVTVSS,high polyreactivity
12,QVQLVESGGGLVQAGGSLRLSCAASGRIFASNAMGWYRQAPGKERELVAAITTTGGSTYYADSVKGRFTISRDNAKNTVYLQMNSLKPEDTAVYYCAARAIPRVRRYGSMNYWGQGTQVTVSS,high polyreactivity
13,QVQLVESGGGLVQAGGSLRLSCAASGRIFASYAMGWYRQAPGKERELVAAINSNGGSKYYADSVKGRFTISRDNAKNTVYLQMNSLKPEDTAVYYCAAGARYKMGYWGQGTQVTVSS,high polyreactivity
14,QVQLVESGGGLVQAGGSLRLSCAASGRIFATNAMGWYRQAPGKERELVATITRSAGRTYYADSVKGRFTISRDNAKNTVYLQMNSLKPEDTAVYYCAASYWDTDPGYREYDYWGQGTQVTVSS,low polyreactivity
15,QVQLVESGGGLVQAGGSLRLSCAASGRIFATNAMGWYRQAPGKERELVATITRSAGRTYYADSVKGRFTISRDTAKNTVYLQMNSLKPEDTAVYYCAASYWDTEPGYREYDYWGQGTQVTVSS,low polyreactivity
16,QVQLVESGGGLVQAGGSLRLSCAASGRIFATYAMGWYRQAPGKERELVAAISDSGGRTYYADSVKGRFTISRDNAKNTVYLQMNSLKPEDTAVYYCARRAVYGIFDYWGQGTQVTVSS,high polyreactivity

row,Sequence,polyreactivity (PSR sort gate)
1,QVQLVESGGGLVQAGGSLRLSCAASGRIFAVYAMGWYRQAPGKERELVATISSSGSTHYADSVKGRFTISRDNAKNTVYLQMNSLKPEDTAVYYCNAGGSELKLGYDYWGQGTQVTVSS,low polyreactivity
2,QVQLVESGGGLVQAGGSLRLSCAASGRIFAWNDMGWYRQAPGKERELVAAITSGGSTYYADSVKGRFTISRDNAKNTVYLQMNSLKPEDTAVYYCAAEVYVPDYFQHKFDVEYEYWGQGTQVTVSS,low polyreactivity
3,QVQLVESGGGLVQAGGSLRLSCAASGRIFAWNDMGWYRQAPGKERELVAAITSGGSTYYADSVKGRFTISRDNAKNTVYLQMNSLKPEDTAVYYCAAGSAYYSQRYFAYGYDSWGQGTQVTVSS,low polyreactivity
4,QVQLVESGGGLVQAGGSLRLSCAASGRIFAWNDMGWYRQAPGKESELVAAITSGGSTYYADSVKGRFTISRDNAKNTVYLQMNCLKPEDTAVYYCAAGSAYYSQRYFAYGYDSWGQGTQVTVSS,low polyreactivity
5,QVQLVESGGGLVQAGGSLRLSCAASGRIFAYNAMGLYRQAPGKERELVADISSGGNTYYADSVKGRFTISRDNAKNTVYLQMNSLKPEDTAVYYCAKYTYDYWGQGTQVTVSS,low polyreactivity
6,QVQLVESGGGLVQAGGSLRLSCAASGRIFAYNAMGWYRQAPGKERELVAAITWSGDSTYYADSVKGRFTISRDNAKNSVYLQMNSLKPVDTAVYYCATDALFKTSTRWKYDYWGQGTQVTVSS,low polyreactivity
7,QVQLVESGGGLVQAGGSLRLSCAASGRIFAYNAMGWYRQAPGKERELVATITSSGDGTSYADSVKGRFTISRDNAKNTVYLQMNSLKPEDTAVYYCNKVTRVRRDPYDAVAYRGGYWGQGTQVTVSS,high polyreactivity
8,QVQLVESGGGLVQAGGSLRLSCAASGRIFAYNDMGWYRQAPGKEREFVAAITWSGTTFSADSVKGRFTISRDNAKNTVYLQMNSLNPEDTAVYYCAAVPYTRWKGADGDYDDVYTEYWGQGTQVTVSS,high polyreactivity
9,QVQLVESGGGLVQAGGSLRLSCAASGRIFAYNTMGWYRQAPGKEREMVAVITSGGSTNYADSVKGRFTISRDNAKITVYLQMNSLKPEDTAVYYCAKRPYGRSGGSRYDYWGHGTQVTVSS,high polyreactivity
10,QVQLVESGGGLVQAGGSLRLSCAASGRIFAYYAMGWYRQAPGKERELVAAITRRSGDTTYYADSVKGRFTISRDNAKNTVYLQMNSLKPEDTAVYYCAARNPSFSSQYYSWGQGTQVTVSS,high polyreactivity
11,QVQLVESGGGLVQAGGSLRLSCAASGRIFAYYAMGWYRQAPGKERELVATIRSGGDTNYADSVKGRFTISRDNAKNTVYLQMNSLKPEDTAVYYCNALYDWWYPHEYNYWGQGTQVTVSS,low polyreactivity
12,QVQLVESGGGLVQAGGSLRLSCAASGRIFCVYAMGWYRQAPGKERELVAAIDTSDGSTNYADSVKGRFTISRDNAKYTVYLQMNSLKPEDTAVYYCNATDSYVPFDYWGQGTQVTVSS,low polyreactivity
13,QVQLVESGGGLVQAGGSLRLSCAASGRIFDDNAMGWDRQAPGKETELVAAISASGGSTYYADSVKGRFTISRVNAKNTVYLQMNSLKPEDTAVYYCAKAPGQDTPYPYGYWGQGTQVTVSS,high polyreactivity
14,QVQLVESGGGLVQAGGSLRLSCAASGRIFDDNAMGWYRQAPGKERELVAAISSGDSTKYADSVKGRFTISRDNAKNTVYLQMNSLKPEDTAVYYCNRRKTNSRYDYWGQGTQVTVSS,low polyreactivity
15,QVQLVESGGGLVQAGGSLRLSCAASGRIFDGYAMGWNRKAPGKERELVPAISGGGNTKYADSEKGRFTISRDNAKNTVYLQMNSLKPEDTAVYYCAARGYYYGYRFDSWGQGTQVTVSS,high polyreactivity
